Experimental data from patent US20120122765A1, “COMPOUNDS AND RELATED METHODS FOR MANIPULATING PARP-1-DEPENDENT CELL DEATH” (priority 2010, published 2012).
Where a SMILES comes first, the peptide text is derived from it. The star is where a group is joined. Cbz = O=C(OCc1ccccc1)*; CH2F = FC*

Legend:
Hq MEFs = test: MNNG cytotoxicity in Hq MEFs; assay type: cell-based, mouse; conditions: zVAD 100 μM, 24 hours after MNNG 500 μM for 15 min
Procedure: Further, the effect WT-AIF-Flag or Pbm-AIF-Flag on Hq MEF cell viability was determined 24 hours after MNNG (500 μM for 15 min) cytotoxicity with and without zVAD (100 μM), and the results of three trials is reported in FIG. 17B.

Hq cortical neurons = test: NMDA excitotoxicity in Hq cortical neurons; assay type: cell-based, mouse; conditions: DPQ (30 μM) or zVAD (100 μM) in addition to NMDA
Procedure: HQ cortical neuron cells were transduced with lentivirus carrying WT-AIF-Flag or Pbm-AIF-Flag. Non-transduced neurons and GFP-lentivirus infected cells were used as negative controls. […] In those photos, blue indicates Hoechst 33342 staining and red indicates propidium iodide staining. […] The cytotoxicity in these Hq cortical neurons was measured at 24 hours, 36 hours, and 48 hours after NMDA (500 μM for 5 min) treatment, and the data for this is reported in the graph of FIG. 18B.

PAR = test: nitrocellulose saturation binding experiments; conditions: result in words
Source text: Applicants thereafter repeated the experiments using both wild type and mutant AIFm peptides spanning only amino acids 567-592 instead of full length AIFm and obtained results consistent with those using full-length AIF. […] The double amino acid mutant Dm (corresponding to only amino acids 567-592 of AIF-Dm so as to consist of SEQ. ID NO. 16) bound PAR. […] Thus, it is preferred in embodiments of the invention when conducting genetic manipulations to convert at least three target basic amino acids in the PBM to hydrophobic amino acids.
The PAR polymer binding properties of the mutant Pbm-AIF was then measured using full-length recombinant His-WT-AIF and His tagged Pbm-AIF (“His-Pbm-AIF”) via a series of nitrocellulose saturation binding experiments. Similar experiments were also conducted for the shorter peptides Dm and Tm in comparison to WT. FIG. 10B through FIG. 10D comprise charts reporting data from these various experiments. With regard to the shorter peptides, Applicants determined that the binding affinity constant (“Kd”) and maximum binding capacity (“Bmax”) of these AIF mimetic peptides and the results are reported in the chart of FIG. 10B. […] FIG. 10D comprises a Scatchard plot (95% confidence interval) of the results.

[1] = NADH oxidase activity of AIF; assay type: biochemical; conditions: compared to His-WT-AIF
Procedure: Unless otherwise set forth herein, the determination of NADH Oxidase Activity and FAD binding of AIF in the various examples below was performed using the following materials and procedures. AIF's NADH oxidase activity was determined as previously described by M. Miramar et al. (J Biol Chem, 2001). In brief, the NADH oxidase activity was measured at room temperature in substrate solution containing 250 μM NADH in air-saturated 50 mM Tris-HCl, pH 8.0. The decrease in absorbance at OD340 nm was monitored right after the addition of recombinant His-tagged AIF into the substrate solution. In situ redox activity of recombinant His-tagged AIF was performed as previously described by J. Gagne et al. (Nucleic Acids Res, 2008). […] FAD binding to AIF was monitored at 13 μM concentration of His-tagged AIF by wave length scanning ranging from 250-800 nm using Beckman Coulter DU800 UV/Vis spectrophotometer.
Independent of its role in parthanatos, AIF has NADH (the reduced form of nicotinamide adenine dinucleotide) oxidase activity, binds to FAD (flavin adenine dinucleotide) and DNA, and causes nuclear condensation. To determine whether the triple amino acid mutation found in Pbm-AIF interferes with these properties, Applicants assessed the NADH oxidase activity, FAD-binding capacity, and DNA-binding capacity of full-length His-WT-AIF and His-Pbm-AIF. […]

DNA = DNA retardation assay; assay type: binding; conditions: DNA (200 ng), 30 minutes
Procedure: AIF binding-mediated DNA mobility retardation was performed as described by H. Cande et al. (Nat Struct Biol, 2002). Recombinant His-tagged AIF (10 μg or 25 μg) was incubated with 1 kb DNA molecular weight marker (obtained from Fermentas) for 30 minutes at room temperature and loaded on 2.5% agarose gel prestained with ethidium bromide (1 μg/ml). Mobility shift was visualized under the Alpha Innotech UV illuminator.
Further, a DNA retardation assay of His-WT-AIF and His-Pbm-AIF was conducted by incubating both with DNA (200 ng) for 30 minutes, using BSA as a negative control.

[2] = FAD binding by spectrophotometric wave length scanning; conditions: His-Pbm-AIF versus His-WT-AIF
Procedure: Unless otherwise set forth herein, the determination of NADH Oxidase Activity and FAD binding of AIF in the various examples below was performed using the following materials and procedures. AIF's NADH oxidase activity was determined as previously described by M. Miramar et al. (J Biol Chem, 2001). In brief, the NADH oxidase activity was measured at room temperature in substrate solution containing 250 μM NADH in air-saturated 50 mM Tris-HCl, pH 8.0. The decrease in absorbance at OD340 nm was monitored right after the addition of recombinant His-tagged AIF into the substrate solution. In situ redox activity of recombinant His-tagged AIF was performed as previously described by J. Gagne et al. (Nucleic Acids Res, 2008). The AIF protein was separated on a 10% native gel and then the gel was briefly washed in distilled water. The gel was equilibrated in 2,2′-Di-p-nitrophenyl-5-5′-diphenyl-3,3′ (3-3′-dimethoxy-4-4′difenilen)tetrazolium chloride (“NBT”) solution for 20 minutes in the dark followed by the addition of 1 mM NADH to NBT solution to reduce NBT. FAD binding to AIF was monitored at 13 μM concentration of His-tagged AIF by wave length scanning ranging from 250-800 nm using Beckman Coulter DU800 UV/Vis spectrophotometer.
FAD binding of His-WT-AIF and His-Pbm-AIF was determined by spectrophotometric wave length scanning of purified proteins. […]

| Molecule | effect on MNNG-induced cell death (Hq MEFs) | effect on NMDA-induced cortical neuron death (Hq cortical neurons) | PAR binding in saturation binding experiments (PAR) | NADH oxidase activity [1] | DNA-binding properties (DNA) | FAD binding properties [2] |
| --- | --- | --- | --- | --- | --- | --- |
| CC(NC(=O)C(NC(=O)OCc1ccccc1)C(C)C)C(=O)NC(CC(=O)O)C(=O)CF (stereo not drawn) [zVAD, reference compound] (Cbz-Val-Ala-Asp-CH2F; configuration not given here) | failed to influence MNNG-induced cell death in MEFs | did not |  |  |  |  |
| His-Pbm-AIF: His tagged Pbm-AIF (protein, UniProt Q9Z0X1 1-612, looked up, variant R588A K589A K592A, full-length His tag) MFRCGGLAGAFKQKLVPLVRTVYVQRPKQRNRLPGNLFQQWRVPLELQMARQMASSGSSGGKMDNSVLVLIVGLSTIGAGAYAYKTIKEDQKRYNERVMGLGLSPEEKQRRAIASATEGGSVPQIRAPSHVPFLLIGGGTAAFAAARSIRARDPGARVLIVSEDPELPYMRPPLSKELWFSDDPNVTKTLQFRQWNGKERSIYFQPPSFYVSAQDLPNIENGGVAVLTGKKVVHLDVRGNMVKLNDGSQITFEKCLIATGGTPRSLSAIDRAGAEVKSRTTLFRKIGDFRALEKISREVKSITVIGGGFLGSELACALGRKSQASGIEVIQLFPEKGNMGKILPQYLSNWTMEKVKREGVKVMPNAIVQSVGVSGGRLLIKLKDGRKVETDHIVTAVGLEPNVELAKTGGLEIDSDFGGFRVNAELQARSNIWVAGDAACFYDIKLGRRRVEHHDHAVVSGRLAGENMTGAAKPYWHQSMFWSDLGPDVGYEAIGLVDSSLPTVGVFAKATAQDNPKSATEQSGTGIRSESETESEASEITIPPSAPAVPQVPVEGEDYGKGVIFYLRDKVVVGIVLWNVFNRMPIAAAIIADGEQHEDLNEVAKLFNIHED |  |  | much less (and virtually linear) binding | no significant change in NADH oxidase activity | comparable | no significant difference |
